Drawing on the RNAGym collection of RNA variant scans (doi:10.7554/elife.80360), this text covers self-cleavage for 54 variants.

To fix the notation:
B1: Twister Ribozyme (parent)
chain: AACACUGCCAAUGCCGGUCCCAAGCCCGGAUAAAAGUGGAGGGGGCGG

This data set covers variants of B1. Put plainly: self-cleavage, relative activity (ratio to wild type); higher = more cleavage; co-transcriptional.
AAUACUGCCAAUGCCGGUCCCAAGCCCGGAUAAAAGUGGAAGGGGCGG [C3U G41A]: the self-cleavage worked out at 0.117.

As for AACACUGCCAAUGCCGGUCCCGAGCCCGGAUAAAAGUGGAGGGGGCGA [A22G G48A], the self-cleavage came out at 0.246.

Consider AACUCUGCCAAUGCCGGUACCAAGCCCGGAUAAAAGUGGAGGGGGCGG [A4U C19A], for which the self-cleavage is 0.0659.

For the variant AAAACUGCCAAUGCCGGUCCCAAUCCCGGAUAAAAGUGGAGGGGGCGG [C3A G24U], the self-cleavage worked out at 0.0787.

In the case of AACACUGCCAAUGCCAGUCCCAAGCGCGGAUAAAAGUGGAGGGGGCGG [G16A C26G], the self-cleavage is 0.112.

With ACCACUGCCAAUGCCGGUCCAAAGCCCGGAUAAAAGUGGAGGGGGCGG [A2C C21A], the self-cleavage turned out to be 0.0892.

As to AACACUACCAAUGCCGGUCCCUAGCCCGGAUAAAAGUGGAGGGGGCGG [G7A A22U], the self-cleavage was determined as 0.103.

Consider AACACUGCCAAUGCCGGUCCCUAGCCCGGAUAAAAGUGGAGGGUGCGG [A22U G44U], for which the self-cleavage was determined as 0.812.

Regarding UACACUGCCAAUGCCGGUCCCAAGCCCGGAUAAAAGUGGACGGGGCGG [A1U G41C], the self-cleavage was 0.0395.

Regarding AACACUGCCAAUGCCCGUCCCCAGCCCGGAUAAAAGUGGAGGGGGCGG [G16C A22C], the self-cleavage came out at 0.198.

For the variant AACACUGCCAAUGCCGGUCCCAAGCCCGGAAAAAAGUGGAGGGGGCGC [U31A G48C], the self-cleavage amounted to 1.19.

With AACACUGCCAAUGCCGGACCCAAGCCCGGAUAAAAGUGGAGGGGGCUG [U18A G47U], the self-cleavage turned out to be 0.174.

As for GACACUGCCAAUCCCGGUCCCAAGCCCGGAUAAAAGUGGAGGGGGCGG [A1G G13C], the self-cleavage worked out at 0.223.

Turning to AACACUGCCAAUGCCGGCCCCAAGCCCGGAUAAAAGUGGGGGGGGCGG [U18C A40G], the self-cleavage was 0.121.

As for AACACUUCCAAUGCCGGUCCCAAGUCCGGAUAAAAGUGGAGGGGGCGG [G7U C25U], the self-cleavage stood at 0.302.

Take AACACGGCCAAUGCCGGUCCCAAGCCCGGAUAAAAGUGCAGGGGGCGG [U6G G39C]: the self-cleavage amounted to 0.124.

As to AACACUGCCAAUGCCGGUCCCAAGCCCGGAUAAAAGGGGAGGGGGCGA [U37G G48A], the self-cleavage came to 0.844.

Regarding AACACUGCCAAUGCCGGUCCCAAGCCCGGAUAAAAGCGGAGGGGGUGG [U37C C46U], the self-cleavage worked out at 0.627.

AACACUGCCAAUGCCGGUCCCAAGCGCGGAUAAAAGUGGAGGGGGCGU [C26G G48U]: the self-cleavage came to 0.146.

With AACACUGCCAAUGCCGGUCCCCAGCCCGGAUAAAAGUGGAGGGGGUGG [A22C C46U], the self-cleavage was 0.832.

In the case of AACACUGCCAAUGCCGGUCCCAAGCCCGGAUACAAGCGGAGGGGGCGG [A33C U37C], the self-cleavage stood at 0.354.

As for AACACUGCCAAUGCGGGUCCCAAGCCCGGAGAAAAGUGGAGGGGGCGG [C15G U31G], the self-cleavage came out at 0.153.

Consider AGCACUGCCAAUGCCGUUCCCAAGCCCGGAUAAAAGUGGAGGGGGCGG [A2G G17U], for which the self-cleavage was determined as 0.0694.

Regarding AACACUGCCAAUGCCGGUCCCAAGCCCGGAUACAAGUGGAGGGGGCAG [A33C G47A], the self-cleavage stood at 0.782.

Consider AACACUGCCAAUGCCGGCCCCAAGCCCGGAUAAAAAUGGAGGGGGCGG [U18C G36A], for which the self-cleavage is 0.158.

For AACACUGCCAAUGCCGGUCCCAAGCCCGGAUAAAAGUGGAGGGGCAGG [G45C C46A], the self-cleavage stood at 0.564.

Consider AACACUCCCAAUGCCGGUCCCAAGCGCGGAUAAAAGUGGAGGGGGCGG [G7C C26G], for which the self-cleavage stood at 0.0717.

AACACUGCCAAUGCCGGUCCCAAGCCCGGAAAAAAGUGGAGGGGGAGG [U31A C46A]: the self-cleavage was found to be 0.816.

Regarding AACUCUGCCAAUGCCGGUCUCAAGCCCGGAUAAAAGUGGAGGGGGCGG [A4U C20U], the self-cleavage came out at 0.0245.

As to ACCACUGCCAAUGCCGGUCCCAAGCCCGGAUAACAGUGGAGGGGGCGG [A2C A34C], the self-cleavage is 0.108.

For the variant AACACUGGCAAUGCCGGUCCCAAGCCCGGAUAAAAGGGGAGGGGGCGG [C8G U37G], the self-cleavage turned out to be 0.108.

On to AACACUGACAAUGCCGGUCCCAAGCCCGGAUAGAAGUGGAGGGGGCGG [C8A A33G], for which the self-cleavage is 0.228.

Regarding AACUCUACCAAUGCCGGUCCCAAGCCCGGAUAAAAGUGGAGGGGGCGG [A4U G7A], the self-cleavage amounted to 0.1.

In the case of AACACUCCCAAUGCCGGUCCCAAGCCUGGAUAAAAGUGGAGGGGGCGG [G7C C27U], the self-cleavage turned out to be 0.0315.

Consider AACAGUGCCAAUGCCGGUCCCGAGCCCGGAUAAAAGUGGAGGGGGCGG [C5G A22G], for which the self-cleavage is 0.137.

With AACACUGCCAAUGCCGGUCCAAAGCCCGGAUAAAUGUGGAGGGGGCGG [C21A A35U], the self-cleavage is 0.104.

Regarding AAGACUGCCAAUGCCGGUCCCAAGCCCGGAUAAAAGUGGAGGGCGCGG [C3G G44C], the self-cleavage amounted to 0.345.

In the case of AACACUGCCAAUGCCGGUCCCAAGCCCGGAUAAAAGUGGAGGGGGCGU [G48U], the self-cleavage worked out at 1.06.

For the variant AACACUGCCAAUGCCGGCCCCAAGCCCAGAUAAAAGUGGAGGGGGCGG [U18C G28A], the self-cleavage amounted to 0.181.

Consider AAUACUGCCAAUGCCGGUCCCAAGCCCGGAUAAAAGGGGAGGGGGCGG [C3U U37G], for which the self-cleavage came out at 0.406.

Turning to AACACUGCCAAUGCAGCUCCCAAGCCCGGAUAAAAGUGGAGGGGGCGG [C15A G17C], the self-cleavage came to 0.0439.

Consider AACACCGCCAAUACCGGUCCCAAGCCCGGAUAAAAGUGGAGGGGGCGG [U6C G13A], for which the self-cleavage is 0.0845.

Regarding ACCACUGCCAUUGCCGGUCCCAAGCCCGGAUAAAAGUGGAGGGGGCGG [A2C A11U], the self-cleavage turned out to be 0.108.

For AACACUGCCAAUGCCGGUCCCAAGCCCGGAUAAAGGUUGAGGGGGCGG [A35G G38U], the self-cleavage turned out to be 0.667.

With AACACUGCCAAUGCCGGUCCCAAGCCCGUAUAAAAGUGGAGGGGGCAG [G29U G47A], the self-cleavage worked out at 0.71.

With AACACUGCCAAUGCCGGUCCCAAGCCCGGAGAAACGUGGAGGGGGCGG [U31G A35C], the self-cleavage came out at 1.06.

As to AACACUGCCAAUGCCGGUCCCAAGUCCGGAUGAAAGUGGAGGGGGCGG [C25U A32G], the self-cleavage came out at 0.804.

Turning to AACACCACCAAUGCCGGUCCCAAGCCCGGAUAAAAGUGGAGGGGGCGG [U6C G7A], the self-cleavage stood at 0.0638.

For the variant AACACUGCCAAUCCCGGUCCCAAGCCCGGAUAAAGGUGGAGGGGGCGG [G13C A35G], the self-cleavage was determined as 0.139.

In the case of AACACUGCCAAUGCCGGUCACAAGCCCGGAUAUAAGUGGAGGGGGCGG [C20A A33U], the self-cleavage stood at 0.0982.

For the variant AACACUGCCAAUGCCGGUCCCAAGCACGGAUAAAAGAGGAGGGGGCGG [C26A U37A], the self-cleavage stood at 0.118.

Take AACAUUGCCAAUGCCGGUCCCAAGCCCGGAUAAAAGUGGAGGGCGCGG [C5U G44C]: the self-cleavage came out at 0.864.

As for AACACUGCCAAUGCCGGUACCAAGCACGGAUAAAAGUGGAGGGGGCGG [C19A C26A], the self-cleavage amounted to 0.0793.

For the variant AACGCUGCCUAUGCCGGUCCCAAGCCCGGAUAAAAGUGGAGGGGGCGG [A4G A10U], the self-cleavage was 1.04.
